Measurements as given in patent publication US11219221B2 (FarmHannong Co., Ltd., priority 2017, dated 2022).
Changes are numbered by the printed parent chain. Names and notes keep the numbering of the source.

Experiments:
CyPPO17 [1] = assay: Herbicide tolerance test of CyPPO17 wild type and variants in PPO-deficient E. coli BT3(ΔPPO); assay type: cell-based, Thermosynechococcus sp. NK55a; conditions: BT3(ΔPPO) transformants; for Herbicide tolerance, tiafenacil: 37° C., 16 to 20 hours
Procedure: The mutated CyPPO gene obtained from the Example 2 was transformed to BT3 (ΔPPO) strain which is deficient of PPO activity and cultured in LB media with PPO-inhibiting herbicide, thereby examining whether growth of transformed BT3 was not inhibited.
BT3 competent cells were transformed with the pET303-CyPPO16 and pET303-CyPPO17 plasmids and those with a mutation(s) constructed in Example 2 respectively, and were cultured in LB agar media containing carbenicillin (Gold Biotechnology, Co., Ltd.).
Single colony of E. coli transformed with each CyPPO gene was cultured in 3 ml of LB broth containing carbenicillin overnight, and then was subcultured until absorbance (0D600) reached 0.5 to 1. Then, it was diluted with LB broth to OD600=0.5. Again, the diluted solution was serially diluted 4 times by a factor of one tenth.
The LB agar media (LB 25 g/l, Bacto agar 15 g/l) containing carbenicillin (100 μg/ml) and 0 to 4,000 μM of various herbicides dissolved in DMSO was prepared. Next, 10 μl of each diluted solution was dropped on the plate and cultured at 37° C. under light (Tables 7 and 9, FIGS. 2 to 6, and 18 to 22) or dark (Tables 8 and 10, FIGS. 7 to 17, and 23 to 33) for 16 to 20 hours. Then, extent of tolerance was evaluated.
The extent of herbicide tolerance of the mutated genes was evaluated by comparing that of mutated genes with that of wild type. The relative tolerance was represented with “+” as a factor of 10 times. Evaluation result was listed in Tables 7 to10 and FIGS. 2 to 33:
In Tables 7 to 10, tolerance level was presented as of tolerance of wild type and of variants equivalent to that of wild type, and was done as ‘+’ per each 10 fold resistance until ‘+++++’ as maximal resistance. (Tolerance level was evaluated by relative growth level of variants to that of wild type in the media containing highest concentration of herbicide; ‘+’=1-9 fold higher tolerance, ‘++’=10-99 fold higher tolerance, ‘+++’=100-999 fold higher tolerance, ‘++++’=1,000-9,999 fold higher tolerance, ‘+++++’=more than 10,000 fold higher tolerance)
The concentrations of herbicides were written above the photographs of tolerance test. A dilution series (0D600=0.5, 0.05, 0.005, 0.0005, 0.00005) was made and spotted on LB agar plates supplemented with herbicides.

CyPPO17 [2] = assay: PPO enzyme activity of MBP-fused CyPPO17 wild type and variants; assay type: biochemical, Thermosynechococcus sp. NK55a; conditions: PPO enzyme activity relative to wild type; MBP-fused protein, 50 μM protoporphyrinogen IX, room temperature, 30 min
Procedure: Thus, PPO proteins of wild type and variants were expressed as fused to MBP and were used for experiments.
The following process for purification of PPO protein was performed in a 4° C. cold room. Amylose resin (NEB) was packed to 1.5×15 cm column (Bio-Rad, Econo Columns 1.5×15 cm, glass chromatography column, max. vol), and the obtained protein extracts were loaded to the column at a flow rate of 0.2 ml/min. The column was washed with 3 column volumes of buffer and the presence of protein in the washing solution was examined. When the protein was no longer detected, the washing procedure was terminated. Then, the MBP-PPO protein was eluted with approximately 2 column volumes of buffer containing 20 mM maltose. The protein concentration of each eluent was determined and the elution was stopped when the protein was no longer detected. Ten microliter of each fraction was investigated for protein quantification and SDS-PAGE analysis. The highly pure fractions of PPO protein variants were used for the enzyme assay.
Since protoporphyrinogen IX, a substrate of PPO protein, was not commercially available, it was chemically synthesized in the laboratory. Overall process was performed in dark under nitrogen stream. […] of protoporphyrin IX was dissolved in 20 ml of 20% (v/v) EtOH, and stirred under dark condition for 30 minutes. The obtained protoporphyrin IX solution was put into a 15 ml screw tube in an amount of 800 μl, and flushed with nitrogen gas for 5 minutes. To this, 1.5 g of sodium amalgam was added and vigorously shaken for 2 minutes. The lid was opened to exhaust hydrogen gas in the tube. Thereafter, the lid was closed and incubated for 3 minutes. The protoporphyrinogen IX solution was filtered using syringe and cellulose membrane filter. […] To determine the enzyme activity of PPO protein, a reaction mixture was prepared with the following composition (based on 10 ml): 50 mM Tris-Cl (pH 8.0); 50 mM NaCl; 0.04% (v/v) Tween 20; 40 mM glucose (0.072 g); 5 units glucose oxidase (16.6 mg); and 10 units catalase (1 μl).
Hundred and eighty microliters of a reaction mixture containing the purified PPO protein were placed in 96 well plates and 20 μl of […] were added. […] The reaction proceeded at room temperature for 30 min and the fluorescence of protoporphyrin IX was measured using Microplate reader (Sense, Hidex) (excitation: 405 nm; emission: 633 nm). […] To this, 2.7 N HCl was added, and the absorbance at 408 nm was measured. A standard curve was generated using standard protoporphyrin IX, and PPO activity was measured by calibration of protoporphyrin IX using the standard curve of protoporphyrin IX.
Activities of variants were presented relatively compared to that of wild type.

[3] = one amino acid mutation, light, relative to wild type at highest concentration (50, 100 μM)
[4] = one amino acid mutation, light, relative to wild type at highest concentration (5, 25 μM)

B1: F359V: CyPPO17 variant (protein)
chain: MEVDVAIVGGGLSGLSVAWRLQQSAPQYSGVLLEASDRLGGNITTQGAEGFVWELGPNSFAPTPALLQLIAEVGLHSELIRGDRHLPRYIYWRGELYPLEPTRPLALATSNLLSPWGKVRAALGALGFVPPYLGSGDESVNSFFRRHLGQEVAERLVAPFVSGVYAGDPQQLSAAAAFRRIAQLEKLGGGLIAGALRLRRQQPPKPRPPAEVQMRPGELGSFKEGLAALPRAIAQQLKAPVHLQTPVEAITPEPNGGYLLRSGEQTWQARSVVLATPAYQTAALVAPFQPAIARVLAAIPYPTVACVVLAYPAGLGRSVRPGFGVLIPRGQGIRTLGTIWSSCLFPQRTPAGWQVFTSVIGGATDPDLASLREEAIVQQVQQDLTRLLDLPAAKARLLGMKVWRRAIPQYLVGYPQQWQQVTHALSQTPGLFLCSNYAEGVALGDRVEHGNRTAAAVAAYLSGGQS
modifications: Synthetic (Protoporphyrinogen IX oxidase (CyPPO17) of Thermosynechococcus sp. NK55a)
notes: CyPPO17 variant
Herbicide tolerance, tiafenacil (CyPPO17 [1]; [3]): ++ (‘++’=10-99 fold higher tolerance)
Herbicide tolerance, pyraflufen-ethyl (CyPPO17 [1]; one amino acid mutation, light, relative to wild type at highest concentration (5, 10 μM)): ++ (‘++’=10-99 fold higher tolerance)
Herbicide tolerance, acifluorfen (CyPPO17 [1]; [4]): + (‘+’=1-9 fold higher tolerance)
Herbicide tolerance, fomesafen (CyPPO17 [1]; [4]): + (‘+’=1-9 fold higher tolerance)
Herbicide tolerance, pentoxazone (CyPPO17 [1]; [4]): ++ (‘++’=10-99 fold higher tolerance)
Herbicide tolerance, pyraclonil (CyPPO17 [1]; [4]): + (‘+’=1-9 fold higher tolerance)
Herbicide tolerance, sulfentrazone (CyPPO17 [1]; [4]): ++ (‘++’=10-99 fold higher tolerance)
Herbicide tolerance, flumioxazin (CyPPO17 [1]; [3]): ++ (‘++’=10-99 fold higher tolerance)
Herbicide tolerance, saflufenacil (CyPPO17 [1]; one amino acid mutation, light, relative to wild type at highest concentration (50, 200 μM)): +++ (‘+++’=100-999 fold higher tolerance)
Activity (%) (CyPPO17 [2]): 84%

B2: L326T: CyPPO17 variant (protein)
chain: B1 chain with L326T, V359F
modifications: Synthetic (Protoporphyrinogen IX oxidase (CyPPO17) of Thermosynechococcus sp. NK55a)
notes: CyPPO17 variant
Activity (%) (CyPPO17 [2]): 96%

B3: F359T: CyPPO17 variant (protein)
chain: B1 chain with V359T
modifications: Synthetic (Protoporphyrinogen IX oxidase (CyPPO17) of Thermosynechococcus sp. NK55a)
notes: CyPPO17 variant
Activity (%) (CyPPO17 [2]): 56%

B4: I339T: CyPPO17 variant (protein)
chain: B1 chain with I339T, V359F
modifications: Synthetic (Protoporphyrinogen IX oxidase (CyPPO17) of Thermosynechococcus sp. NK55a)
notes: CyPPO17 variant
Activity (%) (CyPPO17 [2]): 48%

B5: L326T + F359M: CyPPO17 variant (protein)
chain: B1 chain with L326T, V359M
modifications: Synthetic (Protoporphyrinogen IX oxidase (CyPPO17) of Thermosynechococcus sp. NK55a)
notes: CyPPO17 variant
Herbicide tolerance, tiafenacil (CyPPO17 [1]; two or more amino acid mutations, dark, relative to wild type at highest concentration (50, 200 μM)): ++++ (‘++++’=1,000-9,999 fold higher tolerance)
Herbicide tolerance, flumioxazin (CyPPO17 [1]; two or more amino acid mutations, dark, relative to wild type at highest concentration (100, 200 μM)): ++++ (‘++++’=1,000-9,999 fold higher tolerance)
Herbicide tolerance, sulfentrazone (CyPPO17 [1]; two or more amino acid mutations, dark, relative to wild type at highest concentration (200, 400 μM)): +++ (‘+++’=100-999 fold higher tolerance)
Activity (%) (CyPPO17 [2]): 74%

B6: R88A: CyPPO17 variant (protein)
chain: B1 chain with R88A, V359F
modifications: Synthetic (Protoporphyrinogen IX oxidase (CyPPO17) of Thermosynechococcus sp. NK55a)
notes: CyPPO17 variant
Activity (%) (CyPPO17 [2]): 70%

B7: F160A: CyPPO17 variant (protein)
chain: B1 chain with F160A, V359F
modifications: Synthetic (Protoporphyrinogen IX oxidase (CyPPO17) of Thermosynechococcus sp. NK55a)
notes: CyPPO17 variant
Activity (%) (CyPPO17 [2]): 63%

B8: F359M: CyPPO17 variant (protein)
chain: B1 chain with V359M
modifications: Synthetic (Protoporphyrinogen IX oxidase (CyPPO17) of Thermosynechococcus sp. NK55a)
notes: CyPPO17 variant
Activity (%) (CyPPO17 [2]): 90%

B9: F359I: CyPPO17 variant (protein)
chain: B1 chain with V359I
modifications: Synthetic (Protoporphyrinogen IX oxidase (CyPPO17) of Thermosynechococcus sp. NK55a)
notes: CyPPO17 variant
Activity (%) (CyPPO17 [2]): 92%
